The text below walks through data of patent publication US11224632B2 (priority 2016, dated 2022).

For one assay, the target named is CaV2.2 channel (Homo sapiens, UniProt Q00975). The format is cell-based.
The target of another assay is T1, CaV1.2 channel (Oryctolagus cuniculus, UniProt P15381).
T1 construct: The coding regions of the two different alpha1 pore-forming units (CaValpha1) of the voltage-dependent calcium channel were fused in frame; expressed in transfected cells; host or cells: tsA201 cells, transient co-transfection
The assay is described as follows: whole cell patch clamp of CaV1.2-mediated ion currents in tsA201 cells co-expressing CaV1.2 and CaVbeta2e. The format is cell-based, rabbit. The conditions noted are these: 150 nM peptide. Background: In patch-clamp work, channel activity is measured electrically.

Entries after “also recorded” stand apart in the source; their conditions may differ. Where no end group is shown, it is not given here. [ ]: non-standard residue; d: D form.

T1 sequence (P15381 whole entry, the tested form may be a part): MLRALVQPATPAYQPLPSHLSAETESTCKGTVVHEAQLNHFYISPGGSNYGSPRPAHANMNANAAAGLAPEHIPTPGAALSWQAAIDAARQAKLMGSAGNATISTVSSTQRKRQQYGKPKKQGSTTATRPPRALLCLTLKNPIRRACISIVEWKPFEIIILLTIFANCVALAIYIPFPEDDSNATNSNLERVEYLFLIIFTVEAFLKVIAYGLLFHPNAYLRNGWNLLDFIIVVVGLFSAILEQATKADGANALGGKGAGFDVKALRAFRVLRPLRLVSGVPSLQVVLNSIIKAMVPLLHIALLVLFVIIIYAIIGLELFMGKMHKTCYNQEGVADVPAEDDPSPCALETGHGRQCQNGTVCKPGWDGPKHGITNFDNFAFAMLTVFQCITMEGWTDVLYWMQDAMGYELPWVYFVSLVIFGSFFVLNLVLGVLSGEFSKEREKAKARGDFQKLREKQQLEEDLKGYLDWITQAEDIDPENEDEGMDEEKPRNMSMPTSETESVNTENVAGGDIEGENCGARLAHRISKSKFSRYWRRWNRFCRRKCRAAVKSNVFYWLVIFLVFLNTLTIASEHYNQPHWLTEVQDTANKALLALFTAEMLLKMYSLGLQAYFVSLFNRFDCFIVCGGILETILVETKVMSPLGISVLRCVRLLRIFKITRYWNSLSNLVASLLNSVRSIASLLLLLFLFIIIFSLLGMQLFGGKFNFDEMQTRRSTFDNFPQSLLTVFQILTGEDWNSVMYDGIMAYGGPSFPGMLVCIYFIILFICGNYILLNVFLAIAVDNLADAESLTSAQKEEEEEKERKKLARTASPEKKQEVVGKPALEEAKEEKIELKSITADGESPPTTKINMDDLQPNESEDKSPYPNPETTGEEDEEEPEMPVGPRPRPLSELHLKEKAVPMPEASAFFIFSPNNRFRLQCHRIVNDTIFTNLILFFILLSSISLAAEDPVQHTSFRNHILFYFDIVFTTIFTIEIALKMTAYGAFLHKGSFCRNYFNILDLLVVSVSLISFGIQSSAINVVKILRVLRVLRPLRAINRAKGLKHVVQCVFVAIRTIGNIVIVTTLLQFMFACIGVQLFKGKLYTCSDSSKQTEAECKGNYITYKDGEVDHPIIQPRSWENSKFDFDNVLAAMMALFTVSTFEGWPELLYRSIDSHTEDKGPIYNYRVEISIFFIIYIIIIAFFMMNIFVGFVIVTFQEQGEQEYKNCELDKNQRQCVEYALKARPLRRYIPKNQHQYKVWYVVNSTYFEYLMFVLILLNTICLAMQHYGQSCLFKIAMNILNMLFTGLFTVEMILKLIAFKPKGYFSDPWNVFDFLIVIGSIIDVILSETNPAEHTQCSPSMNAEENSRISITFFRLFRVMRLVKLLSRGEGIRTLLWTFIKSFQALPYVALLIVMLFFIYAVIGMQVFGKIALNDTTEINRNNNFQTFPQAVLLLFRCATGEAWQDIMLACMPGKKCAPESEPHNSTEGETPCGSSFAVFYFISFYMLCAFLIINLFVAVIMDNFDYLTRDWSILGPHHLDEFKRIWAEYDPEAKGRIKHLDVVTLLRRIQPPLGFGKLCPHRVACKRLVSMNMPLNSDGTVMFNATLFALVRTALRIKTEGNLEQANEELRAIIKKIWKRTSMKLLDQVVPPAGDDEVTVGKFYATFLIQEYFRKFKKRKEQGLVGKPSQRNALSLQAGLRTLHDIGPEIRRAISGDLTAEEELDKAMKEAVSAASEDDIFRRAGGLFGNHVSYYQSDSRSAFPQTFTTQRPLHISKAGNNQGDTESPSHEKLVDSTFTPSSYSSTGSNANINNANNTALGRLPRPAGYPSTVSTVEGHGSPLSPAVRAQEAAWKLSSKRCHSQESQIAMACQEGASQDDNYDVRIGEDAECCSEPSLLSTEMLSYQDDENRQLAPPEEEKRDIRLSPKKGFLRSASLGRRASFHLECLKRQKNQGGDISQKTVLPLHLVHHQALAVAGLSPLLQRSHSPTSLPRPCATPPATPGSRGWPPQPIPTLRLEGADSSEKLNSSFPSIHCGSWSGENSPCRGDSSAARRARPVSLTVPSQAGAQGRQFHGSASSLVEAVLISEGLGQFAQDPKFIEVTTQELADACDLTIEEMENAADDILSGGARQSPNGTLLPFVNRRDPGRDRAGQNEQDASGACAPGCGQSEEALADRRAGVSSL
T1 sequence (Q8VGC3 1-611 isoform Q8VGC3-4 partner): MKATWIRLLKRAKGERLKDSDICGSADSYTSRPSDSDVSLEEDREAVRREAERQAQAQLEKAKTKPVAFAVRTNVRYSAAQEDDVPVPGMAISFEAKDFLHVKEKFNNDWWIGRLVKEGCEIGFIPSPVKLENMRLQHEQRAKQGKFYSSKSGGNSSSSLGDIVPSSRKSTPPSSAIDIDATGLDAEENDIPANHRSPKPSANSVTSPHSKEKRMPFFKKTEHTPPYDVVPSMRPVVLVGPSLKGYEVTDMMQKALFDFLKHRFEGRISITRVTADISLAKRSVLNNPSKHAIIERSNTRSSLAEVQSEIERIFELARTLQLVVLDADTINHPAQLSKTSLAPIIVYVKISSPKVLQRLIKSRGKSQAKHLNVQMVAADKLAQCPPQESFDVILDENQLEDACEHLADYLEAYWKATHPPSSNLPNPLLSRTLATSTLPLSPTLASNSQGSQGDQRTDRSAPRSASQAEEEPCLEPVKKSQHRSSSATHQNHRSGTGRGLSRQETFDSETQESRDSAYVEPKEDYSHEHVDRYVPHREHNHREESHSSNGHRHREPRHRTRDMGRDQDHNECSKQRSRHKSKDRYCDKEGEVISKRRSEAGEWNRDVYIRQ
Chain of CaV2.2 channel (Q00975 whole entry, looked up): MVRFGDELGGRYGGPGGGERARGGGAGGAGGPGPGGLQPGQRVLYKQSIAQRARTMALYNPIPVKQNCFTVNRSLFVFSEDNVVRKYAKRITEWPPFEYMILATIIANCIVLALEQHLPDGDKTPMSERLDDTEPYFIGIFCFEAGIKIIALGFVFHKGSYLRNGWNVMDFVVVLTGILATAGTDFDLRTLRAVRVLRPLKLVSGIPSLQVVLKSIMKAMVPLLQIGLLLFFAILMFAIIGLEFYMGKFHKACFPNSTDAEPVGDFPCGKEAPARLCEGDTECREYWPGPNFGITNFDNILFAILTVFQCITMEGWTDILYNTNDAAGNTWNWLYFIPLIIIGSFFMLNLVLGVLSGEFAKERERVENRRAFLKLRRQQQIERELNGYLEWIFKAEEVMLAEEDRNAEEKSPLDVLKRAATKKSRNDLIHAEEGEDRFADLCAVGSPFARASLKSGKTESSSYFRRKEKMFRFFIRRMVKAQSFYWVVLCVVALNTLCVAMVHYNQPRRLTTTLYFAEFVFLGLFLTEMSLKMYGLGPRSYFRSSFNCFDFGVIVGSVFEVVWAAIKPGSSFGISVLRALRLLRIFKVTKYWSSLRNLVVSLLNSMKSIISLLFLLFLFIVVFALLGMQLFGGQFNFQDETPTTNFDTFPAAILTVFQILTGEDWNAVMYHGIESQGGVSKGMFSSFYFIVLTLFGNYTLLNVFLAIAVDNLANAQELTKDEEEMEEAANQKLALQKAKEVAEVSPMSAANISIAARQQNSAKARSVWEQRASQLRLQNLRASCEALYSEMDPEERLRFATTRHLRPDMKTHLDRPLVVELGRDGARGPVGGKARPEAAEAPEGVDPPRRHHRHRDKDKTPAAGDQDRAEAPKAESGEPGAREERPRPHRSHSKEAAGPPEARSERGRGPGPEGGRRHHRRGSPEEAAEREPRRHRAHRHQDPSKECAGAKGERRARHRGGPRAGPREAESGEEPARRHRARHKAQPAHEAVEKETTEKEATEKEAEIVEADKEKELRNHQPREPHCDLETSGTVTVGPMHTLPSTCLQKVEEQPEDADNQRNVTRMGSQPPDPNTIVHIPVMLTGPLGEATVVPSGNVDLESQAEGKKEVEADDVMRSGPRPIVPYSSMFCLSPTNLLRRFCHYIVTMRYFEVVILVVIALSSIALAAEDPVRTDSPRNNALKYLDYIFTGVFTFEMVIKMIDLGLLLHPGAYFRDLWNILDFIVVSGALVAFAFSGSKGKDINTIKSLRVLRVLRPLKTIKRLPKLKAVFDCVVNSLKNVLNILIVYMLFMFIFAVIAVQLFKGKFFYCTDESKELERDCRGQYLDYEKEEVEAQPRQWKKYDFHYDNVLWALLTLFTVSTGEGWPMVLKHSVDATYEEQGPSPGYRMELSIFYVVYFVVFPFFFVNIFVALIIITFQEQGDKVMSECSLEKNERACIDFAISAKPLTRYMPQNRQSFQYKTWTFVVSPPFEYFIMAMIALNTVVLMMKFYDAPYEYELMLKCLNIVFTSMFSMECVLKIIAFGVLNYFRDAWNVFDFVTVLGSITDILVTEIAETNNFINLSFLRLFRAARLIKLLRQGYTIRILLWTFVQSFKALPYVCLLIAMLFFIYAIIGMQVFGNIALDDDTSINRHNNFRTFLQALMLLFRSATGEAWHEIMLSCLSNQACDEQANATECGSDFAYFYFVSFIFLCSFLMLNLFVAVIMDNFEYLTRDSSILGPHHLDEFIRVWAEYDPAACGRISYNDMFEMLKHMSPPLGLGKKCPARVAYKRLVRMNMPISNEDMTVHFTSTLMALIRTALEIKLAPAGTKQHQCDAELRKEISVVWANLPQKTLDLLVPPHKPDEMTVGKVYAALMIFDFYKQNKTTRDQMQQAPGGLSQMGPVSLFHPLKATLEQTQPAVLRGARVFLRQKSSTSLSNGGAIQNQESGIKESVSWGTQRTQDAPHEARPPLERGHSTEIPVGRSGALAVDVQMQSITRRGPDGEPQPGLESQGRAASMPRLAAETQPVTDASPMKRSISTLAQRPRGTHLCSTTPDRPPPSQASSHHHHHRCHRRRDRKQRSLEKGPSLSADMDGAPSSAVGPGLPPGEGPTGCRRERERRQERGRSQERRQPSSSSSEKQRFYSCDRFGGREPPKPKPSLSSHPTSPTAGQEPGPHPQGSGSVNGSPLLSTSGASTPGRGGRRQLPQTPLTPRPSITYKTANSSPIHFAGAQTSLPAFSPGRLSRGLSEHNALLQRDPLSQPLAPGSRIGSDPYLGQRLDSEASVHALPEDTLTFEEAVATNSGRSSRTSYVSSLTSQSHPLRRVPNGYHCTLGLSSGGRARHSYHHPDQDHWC

Take omega-conotoxin [reference compound]: the “effect on CaV2.2-mediated ion currents (control blocker)” value on CaV2.2 channel is “interrupted”.

As to “ptlhthnrrrrr ([dP][dT][dL][dH][dT][dH][dN][dR][dR][dR][dR][dR]) [RD2]”, in the assay with CaV2.2 channel, the “change in voltage-dependent activation of the CaV2.2 channel (activation curve)” value was “not accompanied by a change in voltage-dependent activation of the channel”, the “effect on CaV2.2-mediated ion current” value was “significant reduction in the ion current; also recorded: blocks the CaV2.2 channel” and the “reduction in the ion current at all tested voltages (current-to-voltage plot)” value was “up to 55%”. Further, the “voltage dependency of activation of the CaV1.2 channel” value in the assay with CaV1.2 channel was “not affected”. In the assay with CaV1.2 channel (pulses -90 mV to +10 mV), the “effect on CaV1.2-mediated ion current” value is listed as “remained virtually unchanged; also recorded: insensitive”.

Consider “rprtrlhthrnr ([dR][dP][dR][dT][dR][dL][dH][dT][dH][dR][dN][dR]) [D3]”, for which, in the assay with CaV2.2 channel, the “change in voltage-dependent activation of the CaV2.2 channel (activation curve)” value is on record as “not accompanied by a change in voltage-dependent activation of the channel”, the “effect on CaV2.2-mediated ion current” value was “significant reduction in the ion current; also recorded: blocks the CaV2.2 channel”, the “reduction in the ion current at all tested voltages (current-to-voltage plot)” value is given as “up to 54%” and the “reversibility of inhibition of CaV2.2 current” value was “reversible”.
